# From patent WO2009147196A1 (dated 2009)
# B1: Nb_190 expressed intracellularly (pcDNA3.1-Nb_190; HIV-1 NL4.3-Nb_190) (VHH)
# VHH: QVQLQESGGGLVQAGGSLRLSCAASGSIFSINTMGWYRQAPGKQRELVAFATSGGSTNYPDSVKGRFTISRDNVKNTVYLQMNSLKPEDTAVYYCNIDGFLGSLYKDYWSQGTQVTVSS
# Target: Rev of the HIV-1 NL4.3 molecular clone (HIV-1)
# Assay: cell-based or functional assay
binder,measurement,value
B1,virus production (p24) from the HIV-1 NL4.3-Nb_190 clone in HEK 293T cells,300 fold reduction
